In paper PMC9388496:
One block for each substance: values may come before it.

How the values were obtained:
[1] = molecular target: VEGF-165 (VEGF-A165, Sino Biological) (UniProt P15692); experiment: SPR (Biacore T200); details: pH 5.5 vs 7.4, 0.15 M NaCl, 67 mM phosphate, the same buffer adjusted to pH 7.4 with 1 M NaOH
[2] = molecular target: Truncated monomeric His-tagged FcRn (UniProt P55899)
[3] = molecular target: FcRn coupled to the resin of the affinity chromatography column (UniProt P55899); experiment: analytical FcRn affinity chromatography; protein (1 mg/ml, alone or preincubated with cognate Ag) injected on a column with FcRn-coupled resin at pH 5.5 (20 mM MES, 140 mM NaCl), eluted by a linear pH gradient to pH 8.8 (20 mM Tris-HCl, 140 mM NaCl) over 110 min
[4] = molecular target: infliximab (Remicade) (human); experiment: SPR; Biacore T200; IgG1, Fc or ABTs immobilised (~400 RU) on CM5 by amine coupling; monomeric His-tagged FcRn (2000-1.95 nM) injected at pH 5.5 (67 mM phosphate, 0.15 M NaCl, 0.005% Tween20), 50 μl/min; 1:1 Langmuir binding model
[5] = molecular target: IgG1-derived Fc fragment (human); experiment: as above
[6] = molecular target: bevacizumab (Avastin) (human); experiment: as above
[7] = molecular target: adalimumab (Humira) (human); experiment: as above
etanercept (Enbrel) = etanercept (Enbrel) (UniProt P20333); experiment: as above
aflibercept (Eylea) = aflibercept (Eylea) (UniProt P17948); experiment: as above
[8] = molecular target: anti-NIP IgG1 (human | mouse); experiment: as above
[9] = molecular target: Truncated monomeric His-tagged FcRn (UniProt P55899); remark: listed apart in the source

Chain of VEGF-165 (VEGF-A165, Sino Biological) (P15692 whole entry, the tested form may be a part): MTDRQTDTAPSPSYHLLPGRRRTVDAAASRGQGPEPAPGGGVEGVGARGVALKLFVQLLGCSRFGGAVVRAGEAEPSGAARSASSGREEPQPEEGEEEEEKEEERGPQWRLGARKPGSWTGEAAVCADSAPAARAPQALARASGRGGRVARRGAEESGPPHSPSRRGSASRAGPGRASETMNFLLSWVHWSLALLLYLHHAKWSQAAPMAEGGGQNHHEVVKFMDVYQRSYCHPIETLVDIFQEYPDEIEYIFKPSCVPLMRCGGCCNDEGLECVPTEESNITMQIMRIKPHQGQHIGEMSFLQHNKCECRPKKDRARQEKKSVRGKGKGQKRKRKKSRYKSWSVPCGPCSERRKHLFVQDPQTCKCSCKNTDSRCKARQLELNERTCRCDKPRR
Chain of aflibercept (Eylea) (from UniProt P17948 129-229; P35968 1-764) (Fc fusion) (P17948 other isoform, or with tags, fused parts or gaps): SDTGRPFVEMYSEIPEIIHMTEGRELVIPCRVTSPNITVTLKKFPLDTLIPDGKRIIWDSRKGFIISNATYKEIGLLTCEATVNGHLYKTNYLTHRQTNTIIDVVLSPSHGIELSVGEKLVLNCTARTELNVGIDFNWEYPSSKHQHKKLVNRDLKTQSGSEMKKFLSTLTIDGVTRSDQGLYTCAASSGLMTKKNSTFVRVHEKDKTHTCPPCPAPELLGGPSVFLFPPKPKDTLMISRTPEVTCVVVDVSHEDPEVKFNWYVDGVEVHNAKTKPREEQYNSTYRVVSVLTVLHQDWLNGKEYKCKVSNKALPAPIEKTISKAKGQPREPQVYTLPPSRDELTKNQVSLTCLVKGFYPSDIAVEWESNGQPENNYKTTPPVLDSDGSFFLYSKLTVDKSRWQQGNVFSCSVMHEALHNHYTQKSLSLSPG

Substance: Aflibercept (Eylea), VEGFR1 D2-VEGFR2 D3-IgG1 Fc fusion
on-rate (sensorgram comparison), fold change pH 5.5 over pH 7.4 [1]: acidic pH enhanced the on-rate more than 5-fold

Substance: Bevacizumab (Avastin)
on-rate (sensorgram comparison), fold change pH 5.5 over pH 7.4 [1]: acidic pH enhanced the on-rate more than 5-fold

Substance: IgG1-derived Fc fragment (domain or fragment)
reduction of the recycling of 400 nM anti-NIP IgG1 (m4) by titrated Fc fragment (6400-1 nM) in HERA, HMEC-1-FcRn cells preloaded with IVIg, uptake at pH 6.0 [2]: 32.9 nM
elution peak pH [3]: 7.13 pH

Substance: adalimumab (Humira) (antibody)
elution peak pH [3]: 7.21 pH

Substance: bevacizumab (Avastin) (antibody)
elution peak pH [3]: 7.2 pH

Substance: infliximab (Remicade) (antibody)
elution peak pH [3]: 7.15 pH

Now from value to substance:

Kd [4]: 0.31 µM
koff [4]: 0.002 s⁻¹
kon [4]: 35000 M⁻¹ s⁻¹
Kd [5]: 0.23 µM
Kd [6]: 0.38 µM
koff [6]: 0.001 s⁻¹
kon [6]: 32000 M⁻¹ s⁻¹
Kd [7]: 0.43 µM
koff [7]: 0.001 s⁻¹
kon [7]: 42000 M⁻¹ s⁻¹
Kd (etanercept (Enbrel)): 0.38 µM
koff (etanercept (Enbrel)): 0.001 s⁻¹
kon (etanercept (Enbrel)): 31000 M⁻¹ s⁻¹
Kd (aflibercept (Eylea)): 0.35 µM
koff (aflibercept (Eylea)): 0.001 s⁻¹
kon (aflibercept (Eylea)): 30000 M⁻¹ s⁻¹
Kd [8]: 0.33 µM
Substance: Truncated monomeric His-tagged FcRn (from UniProt P55899 24-365) (receptor)

elution peak pH [3]: 7.01 pH
Substance: aflibercept (Eylea) (from UniProt P17948 129-229; P35968 1-764) (Fc fusion)

cellular uptake in HERA (HMEC-1-FcRn cells) after 2 h incubation, relative to non-engineered anti-NIP IgG1 [9]: 15 fold
Substance: anti-NIP IgG1 Fc-engineered variant M252Y/S254T/T256E/H433K/N434F (antibody)

elution peak pH [3]: 6.88 pH
Substance: etanercept (Enbrel) (from UniProt P20333 23-257) (Fc fusion)
